Results reported in the DeepSol protein solubility set.

assay: soluble on expression in E. coli; label from the status in PepcDB or PDB records

Soluble on expression in E. coli, soluble:
MSNKTKLKDNKELLYQVVLSYKVSHNYPLKAFLIECKNKLNECIDMIWNNIKYTKKDNPKLPKSNEFKRELRNKLLENWNYASHYIDGIIKTSYSILQSWASNYKRGYRTKTKPIAKRLFVRVKTTLIKYDKEKGEIRITIKPRKDYLILNIKNEWFFDKVKNLTIGEIILKEKETFLTFKDNLNYSDKGMIVGVDSNLRSLDLFHPIEGWTRVDLTELHRIKEVYDRKIDFLKKLLKKFPLRAMRKINRLFERRRNRVKDFLHKLTIQLSRLFPDAIFVFEDLNKRRMYKSKYFNRKIDRVNWNGLIEKISYKTIVILVNPAYTSTICPICGSRMESQEGQVVYCSNCLNSFNRQLVGCYNIFKRGLGNIKEIMGGSGVTTTGVEVSFGKLMTPNPNVIYIVDYNGKYFNEIA
MSLSIRSLFGGLREKILGKNMKIVFPEGNDERVVRAAARLKFEGLLEPIILGQSEEVRNLLTKLGFADQDYTIINPNEYADFDKMKEAFVEVRKGKATLEDADKMLRDVNYFGVMLVKMGLADGMVSGAIHSTADTVRPALQIIKTKPGISRTSGVFLMNRENTSERYVFADCAINIDPTAQELAEIAVNTAETAKIFDIDPKIAMLSFSTKGSGKAPQVDKVREATEIATGLNPDLALDGELQFDAAFVPETAAIKAPDSAVAGQANTFVFPDLQSGNIGYKIAQRLGMFDAIGPILQGLNKPVNDLSRGSSAEDIYKLAIITAAQAIESQGEGHHHHHH
MSREQAILVGCQLAGVDDERFRYSMEELASLVATANGEVVAEVTQKREAPHPATYIGKGKTEELAAIVKQLEPDVVIFNSELSPSQARNLTKMLGEVKVIDRTQLILDIFARRARSKEGKLQVELAQLEYMLPRLSGQGEALSRLGGGIGTRGPGETKLETDRRHIRRRIDDIKAELVRIAEHRGRYRERRQKNQAFQVALVGYTNAGKSTIFNRLTAADSLEENLLFATLDPLTRKCVLPCGYTVLVTDTVGFIQDLPTTLVAAFRSTLEEVTEADLLLHVVDSSHPDYVAHERTVSRLLAELGASSIPMVTVYNKSDQKASEFIPTTTASIMISALSAADIDRLRYFLEEAVKQQMARYDVSIPSGEGKLLARLKSDTILHEWHYNEQGGTYDCQGYVLPTHPLYGELQSFQR
MDNKALLTHVDINNVVCAMPLPYTRLYEGLASGLKAQFDGIPFYYAHMRGADIRVECLLNGVYDMAVVSRLAAESYLTQKGLCLALELGPHTYVGEHQLICRKGESANVKRVGLDNRSADQKIMTDVFFGGSDVERVDLSYHESLQRIVKGDVDAVIWNVVAENELTMLGLEATPLTDDPRFLQATEAVVLTRVDDYPMQQLLRAVVDKHALLAHQQRVVSGEQEPSY
EKKEQKEKEKKEQEIKKKFKLTGPIQVIHLAKACCDVKGGKNELSFKQGEQIEIIRITDNPEGKWLGRTARGSYGYIKTTAVEIDYDSLKLKKDLE
MFREAELRNGLRVIAEVVPGARSVALGYFVKTGARDETKEESGVSHFLEHMVFKGPEDMDALAVNRAFDRMGAQYNAFTSEEATVYYGAVLPEFAYDLLGLFAKLLRPALREEDFQTEKLVILEEIARYQDRPGFMAYEWARARFFQGHPLGNSVLGTRESITALTREGMAAYHRRRYLPKNMVLAATGRVDFDRLLAEAERLTEAWPEGEAERAYPPLTPAFGVEERPYEKARALYLVALFPGVAYQEEARFPGQVLAHLLGEEGSGRLHFALVDKGLAEVASFGLEEADRAGTFHAYVQADPARKGEVLAVLQEELDRLGREGVGEEEVERAKTPLATGLVFAGETPMQRLFHLGMEYLYTGRYLSLEEVKARVQRVTSREVNALLERGFLEKGLYYLVLPHGA
GSARQQEIDMKRQQRFFRIPFIRPADQYKDPQNKKKGWWYAHFDGPWIARQMELHPDKPPILLVAGKDDMEMCELNLEETGLTRKRGAEILPRQFEEIWERCGGIQYLQSAIESRQARPTYATAMLQNLLKGSSGGSLVPR
MGHHHHHHSHMFPCQHCERKFTTKQGLERHMHIHISTVNHAFKCKYCGKAFGTQINRRRHERRHEAGLKRKPSQ
HLVCPMSKSPYVDPHKSGHEIWEEFSMSFTPAVKEVVEFAKRIPGFRDLSQHDQVNLLKAGTFEVLMVRFASLFDAKERTVTFLSGKKYSVDDLHSMGAGDLLNSMFEFSEKLNALQLSDEEMSLFTAVVLVSADRSGIENVNSVEALQETLIRALRTLIMKNHPNEASIFTKLLLKLPDLRSLNNMHSEELLAFKVHP
GHMSVYHHILLAVDFSSEDSQVVQKVRNLASQIGARLSLIHVLDNIPMPDTPYGTAIPLDTETTYDAMLDVEKQKLSQIGNTLGIDPAHRWLVWGEPREEIIRIAEQENVDLIVVGSHGRHGLALLLGSTANSVLHYAKCDVLAVRLRDD

Soluble on expression in E. coli, not soluble:
MGSDKIHHHHHHMVKTNVTIMRGGTSKGVFFHESAMPNNKNEWEPFLLDVMGSPDKRQIDGLGGGNSLTSKVAIIKKAYTSDIDVHYTFGQVSISEEKVDFKGNCGNISAAVGPFAIEEGLVKAKEPMTAVRILNTNTNKMIIAEVEVEDGQVKYDGDVTISGVPGSGSPIYLNFHDAAGSVTGHLLPTGNSSEFLDTSQGQIEVSIIDYANPLVFVEASSIGLDGTELAEEFTDLQLAQFEELRSIAAEKCGFASRFSATKLSPAVPKLAIVAKPEKYKDSTGAWHSSVEMDLHIRMMSMQKSHQALAVTGAICTTRALSVEGAIPARIAKNHSTKVRLAHSSGIIETMVEPTGIKIVRTARRIMDGTVYTHGDYQMM
MDSQLSNRLAQVAAYVPKGVKLLDVGSDHAYLPIFLVETNQISAAIAGEVVRGPYESALKNVTQSGLAEHIQVRLANGLAAFEEADDVTAITICGMGGRLIADILEAGKEKLQGIERLVLQPNNREDDLRAWLSVNAFKIVAETIMAENDKYYEIIVAEHGEKALSATELRFGPYLSQEKSVVFKEKWQREMDKLAYALSCIPEEKTQERQLLLTKIQQIKEVIVHES
MGTFTATYFLKNAFWDKRGLWTATLAVAYFARCWESAGYNKAEMMKGHSKMYADRLKQLPAHTDAWKY
MAHHHHHHMNCPIVLKTLEQNKNFCVINPEAMDSCIYISLDYFKENLITSCTHKKPLPHTCNVKNEISGIKNLKTEQIELNEFIQEYYKRLIINDDEIMWNVCYFRKSKEFLTILLLEFLKSMLTVLNKYNGKCIFKKTEYLVNCGHHITHRIWIQMFYEYGFESVDADTKKNMKNYPIIQQEDGNNRTLYLTIADHYKWDA
MSLSSTSHERLEVEPIDESSILFADDDHYTSDTVCLVTGGGSGIGRATALAMAANGVTAVATDIDADGLAEVADTAADLDLDGAVETVAGDLANDADIEAIVETAASHGTVRYLANIAGLQHIDAIEDFPMEKYDQMHDVMLRAPLALSKRVIPHIRGTDDGVGAIGNMASVHGHYVTSDKVAYNVSKFGLRGLTQSIAAEGGDGLRGFSISTGYVKTPLVVDQIPDTAEQRGISVDEVIDDVMLGQARIKEMMDPIDVANLFVFGFSRHANHLNGGDLLFDGGMTKTYEGHHHHHH
MAFVKPILLKSATCLLPRVLKLLFATLKINVGYAGEKLPDDQRGVMFAFWHGKMIAGWLLARRLYPKREISAVVSLSGDGQILSDTLDRLGFHLIRGSSSRGKEVVRRGIGVALSNGGVAAVTPDGPRGPHHRFKYGTLRLAAQHRTPVVFAEISYDNARRLKSWDRFEIPLPFSRVRVTLHVVQVPEFPTEEAFRAWADELSTGFDDALEHHHHHH
MGSDKIHHHHHHMFPLVTITGEPFERGQQYGAATAALIRHSIASYARLFAYRRGMDWEAVQQAALAYEPLLHDVAPDLLTEMRGIAVGASRTLAEIIALNVRTELLAGVGVGFHHPEAAAALARNRAAGVPQHQEQLPATPATGSDDGECTTAAASPPATANGRVWLAQTWDWQGDQRAACVLLRVSGPDTPTLLTLTEAGMVAKIGLNEAGIAVGLNLLRSRADGQQQGMPVHVLLRQMLQSTDTVTARRLVSQIPAAGSSCITLAGADGELVALELTPTGIAEIPAQEGLLAHANHCLDGGTAAGECPLEPTSTTRERYGRAWELLHAAAGQIDLDVLQVILRDHDGAPRCICRHPDPRVAAVDRNESVCGVIIDLRGRTMHVAANIPCQAPFVPFML
MAGDPMITVVGVRFKKAGKIYYFSPGDLNINKGDDVIVETARGIEYGNCVIGLKQVGEESIVSPLKSVIRVATDEDEIKYRENKNKEKEAFNICLSKIKKHELVMKLIDVEYTFDNNKIIFYFTAEGRVDFRELVKDLASVFRTRIELRQIGVRDEAKMIGGFGVCGRPMCCALYLGDFAPVSIKMAKEQNLSLNPSKISGVCGRLMCCLNYEQETYETIRKRMPKVGSIVSTKEYGKAEVVDNNIIKEAVKIKFTAEDGESISEAEVHIKDLKLISGSYEGNVDESQIKLELEDVDAKEVKELFKTDLEHHHHHH
MVHRLDISSEMIAFFKNCAKNGNYTPFLSNYRGLIRDIGQQLEKVSLPNNSLEKLMVKHFANCFVALHTMNSLDELAASAPKFVADFKQAIGNKKTLKELHDNFKSSDTKQQGLNRKLTNKMERNRSEMKQFKMEMMSSFNGLKQNMDTKMEEMMQLMRALIQDLTSQKLAQNPESSKCSFPNYGLEIQKKFEDMIQNMKSQTGSVFELKLKEIEQLEAEAENTIPKIPKKAAGSSSEH
MEVTVMPAAAPVQKQQGLNQIVINKVQKMIEGKQQGVMATITRLLEEGKIAQDFIAPIGVNLRNEDRHPVITFQAEEQVQMNMPEGNFNLHGNAISQISEKMGIPAKYLRELSAGDAWQKQLCATILNEHSGWTGRTRVLIRAVGTEIRGVLSDSYRRLNSVDILTAFIREAANNGAVVSDAYMNDTKVWCETILPTPVEIPTRKNGTVIIFAGARFSTSDFGNGSVDMRSFLLNGACLNGMVRESVMRQIHLGGRLPDTLALSQRTYELDTKTTVSAVKDLTKGLYSKNTIMQKAIEIQGASEIDVDFDKELKSLVQRGALLKNEGREVEKLLMNNNPDDGITGGATLWKLAQGITAFAREQEPERSRELHEISGQLMNRVKNN
MTDNSKIRVVVGMSGGVDSSVTALLLKEQGYDVIGVFMKNWDDTDEFGVCTATEDYKDVAAVADKIGIPYYSVNFEKEYWDRVFEYFLAEYRAGRTPNPDVMCNKEIKFKAFLDYAMTLGADYVATGHYAQVKRDENGTVHMLRGADNGKDQTYFLSQLSQEQLQKTLFPLGHLQKSEVREIAERAGLATAKKKDSTGICFIGEKNFKQFLSQYLPAQKGRMMTIDGRDMGEHAGLMYYTIGQRGGLGIGGQHGGDNQPWFVVGKDLSQNILYVGQGFYHEALMSNSLDASVIHFTREMPEEFTFECTAKFRYRQPDSHVAVHVRGDKAEVVFAEPQRAITPGQAVVFYDGKECLGGGMIDMAYKNGQPCQYI
MVVKEILRLLFLLAMYELGKYVTEQVYIMMTANDDVEAPSDYEKIRAEVSWLEHHHHHH
MSLTEYVDAVPAASMTVCTVQHTDTTPQHSINEDRVIPLDSNKGIADMEFGDAHTLAHRVSASAERMYRFSSIETTQFIKILLRKMAARMASLASCHTHVYASSHSLPWDSACEHYIFGMRRILIEGHHHHHH
TVLENGSWLIDGDTPVNKLKYVLSVDSFPGEEQGYYLTIAGLIMYILQRIPKTGDHMEFNGLRYEVVDMDGIRIDKVMVTKVPEISKD
